The Human Domainome abundance scans (Beltran et al. 2025)
± gives the uncertainty stated by the source.

B1: Ankyrin-1, residues 1405 to 1484; numbered along this chain, P16157 (parent)
chain: MKMAVISEHLGLSWAELARELQFSVEDINRIRVENPNSLLEQSVALLNLWVIREGQNANMENLYTALQSIDRGEIVNMLE

Variants of: B1
Assay: abundance fitness (aPCA) (normalised: wild type 0, dead -1); higher = more abundant; growth selection in yeast, the domain comes from the species named
Settings: Homo sapiens

Variant	abundance fitness
E34F	-0.185 ± 0.16
E34N	-0.134 ± 0.35
E34M	-0.265 ± 0.34
E34K	-0.522 ± 0.41
E34L	-0.241 ± 0.097
E34G	-0.166 ± 0.074
E34H	-0.453 ± 0.18
E34R	-0.204 ± 0.12
E34D	-0.186 ± 0.33
E34P	-0.992 ± 0.49
E34C	-0.257 ± 0.19
R19A	-0.047 ± 0.06
R19L	0.025 ± 0.053
R19C	-0.17 ± 0.077
R19K	-0.048 ± 0.17
R19H	0.064 ± 0.18
R19I	-0.489 ± 0.17
R19Y	-0.434 ± 0.17
R19V	-0.072 ± 0.057
R19F	0.067 ± 0.057
R19M	0.003 ± 0.1
R19N	-0.32 ± 0.23
R19S	-0.123 ± 0.084
R19G	-0.229 ± 0.042

Variant	abundance fitness
R19W	-0.268 ± 0.09
R19D	-0.296 ± 0.11
R19Q	-0.052 ± 0.12
R19T	-0.092 ± 0.046
S24L	-0.776 ± 0.12
S24V	-0.722 ± 0.097
S24E	-0.067 ± 0.069
S24W	-0.925 ± 0.25
S24K	-0.147 ± 0.099
S24G	-0.23 ± 0.054
S24Y	-0.856 ± 0.26
S24C	-0.39 ± 0.17
S24H	-0.429 ± 0.18
S24F	-0.837 ± 0.36
S24P	-0.209 ± 0.056
S24R	-0.25 ± 0.051
S24T	-0.191 ± 0.088
S24M	-0.487 ± 0.12
S24Q	-0.195 ± 0.088
S24A	-0.213 ± 0.056
R32T	-0.141 ± 0.083
R32I	-0.124 ± 0.071
R32M	-0.35 ± 0.13
R32F	0.069 ± 0.098

Variant	abundance fitness
R32N	-0.369 ± 0.17
R32C	-0.13 ± 0.19
R32L	-0.095 ± 0.056
R32W	-0.31 ± 0.45
R32Q	-0.132 ± 0.066
R32P	-0.831 ± 0.23
R32G	-0.212 ± 0.06
R32Y	-0.43 ± 0.15
R32V	-0.041 ± 0.059
R32H	-0.294 ± 0.12
R32E	0.031 ± 0.05
R32K	-0.3 ± 0.12
N29P	-0.952 ± 0.22
N29S	-0.156 ± 0.062
N29T	-0.005 ± 0.082
N29R	-0.007 ± 0.048
N29C	-0.184 ± 0.12
N29I	-0.123 ± 0.16
N29K	0.021 ± 0.1
N29E	-0.05 ± 0.067
N29L	-0.127 ± 0.059
N29G	-0.133 ± 0.049
N29D	0.041 ± 0.079
N29W	-0.148 ± 0.051

Variant	abundance fitness
N29Q	-0.041 ± 0.077
N29H	-0.37 ± 0.2
N29F	-0.376 ± 0.14
N29Y	-0.484 ± 0.16
N29M	-0.075 ± 0.068
N29A	-0.062 ± 0.052
N29V	-0.213 ± 0.054
I28M	-0.341 ± 0.13
I28F	-0.738 ± 0.22
I28L	-0.529 ± 0.083
I28T	-0.43 ± 0.11
I28G	-0.891 ± 0.11
I28R	-0.571 ± 0.071
I28V	-0.1 ± 0.051
I28D	-0.584 ± 0.43
I28E	-0.627 ± 0.11
I28S	-0.797 ± 0.11
I28P	-0.58 ± 0.14
I28A	-0.522 ± 0.066
I28K	-0.686 ± 0.18
I28Q	-0.577 ± 0.22
I28Y	-0.485 ± 0.2
I28C	-0.198 ± 0.087
E26S	-0.071 ± 0.055

Variant	abundance fitness
E26A	-0.2 ± 0.066
E26R	-0.104 ± 0.051
E26Q	-0.119 ± 0.098
E26F	-0.369 ± 0.14
E26P	-0.371 ± 0.089
E26H	-0.113 ± 0.2
E26I	-0.303 ± 0.15
E26T	0.023 ± 0.094
E26K	-0.059 ± 0.073
E26Y	0.064 ± 0.15
E26L	-0.153 ± 0.053
E26V	-0.233 ± 0.064
E26M	-0.189 ± 0.1
E26W	-0.197 ± 0.054
E26N	0.016 ± 0.15
E26G	-0.127 ± 0.039
L21M	0.048 ± 0.12
L21S	-0.645 ± 0.15
L21C	-0.727 ± 0.33
L21A	-1.02 ± 0.28
L21G	-0.965 ± 0.17
L21F	-0.69 ± 0.29
L21W	-0.666 ± 0.13
L21R	-0.923 ± 0.26

Variant	abundance fitness
L21I	-0.425 ± 0.38
A18E	-0.39 ± 0.14
A18M	-0.827 ± 0.27
A18L	-0.535 ± 0.078
A18R	-0.681 ± 0.1
A18T	-0.89 ± 0.2
A18V	-1.07 ± 0.15
A18F	-0.872 ± 0.28
A18W	-0.9 ± 0.19
A18Q	-0.936 ± 0.38
A18N	-0.627 ± 0.29
A18C	-1.05 ± 0.29
A18G	-0.075 ± 0.048
A18D	-0.96 ± 0.23
A18I	-0.77 ± 0.16
A18P	-0.912 ± 0.17
I31C	-0.872 ± 0.2
I31F	-0.793 ± 0.44
I31R	-0.647 ± 0.083
I31P	-0.639 ± 0.29
I31H	-1.07 ± 0.28
I31Y	-0.448 ± 0.41
I31V	-0.192 ± 0.057
I31A	-0.855 ± 0.15

Variant	abundance fitness
I31D	-0.918 ± 0.32
I31Q	-0.712 ± 0.11
I31L	-0.149 ± 0.059
I31S	-0.938 ± 0.18
I31M	-0.524 ± 0.12
I31T	-0.774 ± 0.3
V33D	-0.031 ± 0.14
V33F	0.021 ± 0.12
V33M	-0.034 ± 0.076
V33L	-0.001 ± 0.061
V33H	-0.043 ± 0.049
V33K	-0.215 ± 0.14
V33W	-0.073 ± 0.07
V33R	0.021 ± 0.038
V33P	-0.764 ± 0.24
V33A	0.096 ± 0.057
V33S	-0.03 ± 0.061
V33T	0.138 ± 0.082
V33G	-0.041 ± 0.04
V33I	-0.018 ± 0.13
V33E	-0.014 ± 0.068
V33Q	0.033 ± 0.09
V33C	0.174 ± 0.12
V33N	-0.103 ± 0.28

Variant	abundance fitness
R30S	-0.139 ± 0.062
R30T	-0.226 ± 0.086
R30F	-0.518 ± 0.18
R30W	-0.328 ± 0.076
R30P	-1.1 ± 0.21
R30D	-0.122 ± 0.11
R30H	-0.081 ± 0.22
R30Q	-0.049 ± 0.072
R30C	-0.022 ± 0.12
R30L	-0.213 ± 0.057
R30G	-0.236 ± 0.05
R30A	-0.215 ± 0.059
R30N	-0.134 ± 0.071
R30V	-0.192 ± 0.055
R30Y	-0.298 ± 0.16
R30E	-0.292 ± 0.13
R30I	-0.356 ± 0.2
R30K	0.054 ± 0.12
A15W	-0.288 ± 0.065
A15S	0.037 ± 0.06
A15C	-0.238 ± 0.13
A15T	0 ± 0.064
A15P	-0.025 ± 0.1
A15H	-0.206 ± 0.21

Variant	abundance fitness
A15I	0.132 ± 0.072
A15G	-0.108 ± 0.037
A15E	0.04 ± 0.076
A15Q	-0.171 ± 0.13
A15L	0.076 ± 0.049
A15Y	0.128 ± 0.17
A15F	-0.039 ± 0.058
A15D	-0.209 ± 0.11
A15V	0.066 ± 0.047
A15K	-0.251 ± 0.22
D27Y	-0.597 ± 0.2
D27C	-0.063 ± 0.15
D27M	-0.213 ± 0.14
D27K	-0.508 ± 0.15
D27T	-0.236 ± 0.14
D27H	-0.121 ± 0.17
D27P	-0.822 ± 0.23
D27F	-0.436 ± 0.2
D27G	-0.573 ± 0.081
D27R	-0.46 ± 0.071
D27W	-0.89 ± 0.15
D27E	-0.08 ± 0.069
D27L	-0.429 ± 0.077
D27A	-0.071 ± 0.069

Variant	abundance fitness
D27I	-0.043 ± 0.094
D27V	-0.089 ± 0.058
D27N	-0.49 ± 0.22
D27S	-0.127 ± 0.058
V25R	-0.07 ± 0.046
V25S	0.002 ± 0.054
V25P	0.018 ± 0.076
V25G	-0.119 ± 0.038
V25N	0.114 ± 0.14
V25H	0.159 ± 0.085
V25T	-0.159 ± 0.079
V25Y	0.143 ± 0.097
V25A	0.028 ± 0.05
V25D	-0.05 ± 0.1
V25W	-0.265 ± 0.069
V25M	-0.056 ± 0.12
V25Q	-0.03 ± 0.066
V25L	-0.073 ± 0.036
V25I	-0.143 ± 0.21
V25C	-0.161 ± 0.083
V25K	-0.005 ± 0.11
V25E	0.078 ± 0.06
F23L	-0.443 ± 0.061
F23K	-0.786 ± 0.18

Variant	abundance fitness
F23E	-0.911 ± 0.35
F23R	-0.833 ± 0.085
F23N	-1.02 ± 0.32
F23T	-0.908 ± 0.31
F23H	-0.829 ± 0.36
F23P	-0.918 ± 0.21
F23I	0 ± 0.1
F23V	-0.144 ± 0.067
F23Q	-0.883 ± 0.24
F23C	-0.51 ± 0.16
F23Y	-0.478 ± 0.12
F23M	-0.693 ± 0.14
F23W	-0.964 ± 0.17
E20F	-0.345 ± 0.093
E20Q	0.069 ± 0.12
E20L	-0.411 ± 0.057
E20Y	-0.286 ± 0.12
E20G	-0.49 ± 0.068
E20N	-0.087 ± 0.14
E20A	-0.136 ± 0.059
E20R	-0.127 ± 0.053
E20P	-0.996 ± 0.17
E20I	-0.135 ± 0.12
E20S	-0.145 ± 0.049

Variant	abundance fitness
E20H	-0.12 ± 0.1
E20C	-0.125 ± 0.077
E20D	-0.508 ± 0.15
E20V	-0.175 ± 0.062
E20M	-0.077 ± 0.12
W14D	-0.907 ± 0.28
W14S	-0.89 ± 0.14
W14H	-0.873 ± 0.29
W14R	-1.08 ± 0.21
W14G	-0.895 ± 0.12
W14K	-0.545 ± 0.21
W14C	-1.05 ± 0.28
W14L	-0.538 ± 0.072
W14P	-0.785 ± 0.24
W14A	-0.799 ± 0.16
W14E	-0.788 ± 0.36
W14T	-0.758 ± 0.14
W14V	-0.67 ± 0.13
W14M	-0.454 ± 0.13
W14N	-0.865 ± 0.24
L17G	-0.972 ± 0.12
L17P	-0.881 ± 0.23
L17W	-0.636 ± 0.12
L17R	-1.03 ± 0.17

Variant	abundance fitness
L17E	-0.204 ± 0.16
L17H	-0.671 ± 0.4
L17F	0.009 ± 0.11
L17N	-0.776 ± 0.32
L17C	-0.81 ± 0.2
L17Y	-0.462 ± 0.11
L17M	-0.25 ± 0.12
L17S	-0.853 ± 0.14
L17A	-0.607 ± 0.12
L17D	-1.01 ± 0.27
E16L	-0.162 ± 0.054
E16A	-0.041 ± 0.059
E16N	0.161 ± 0.26
E16M	-0.207 ± 0.1
E16I	-0.384 ± 0.13
E16C	-0.271 ± 0.083
E16V	-0.037 ± 0.05
E16W	-0.593 ± 0.15
E16G	0.018 ± 0.047
E16T	-0.222 ± 0.095
E16H	-0.104 ± 0.12
E16D	0.068 ± 0.089
E16Q	-0.081 ± 0.11
E16R	-0.085 ± 0.056

Variant	abundance fitness
E16P	-0.091 ± 0.064
E16F	-0.23 ± 0.15
E16K	-0.088 ± 0.086
Q22L	-0.126 ± 0.052
Q22C	0.016 ± 0.078
Q22V	-0.494 ± 0.079
Q22M	-0.008 ± 0.048
Q22I	-0.276 ± 0.15
Q22Y	-0.187 ± 0.15
Q22K	0.011 ± 0.08
Q22A	-0.066 ± 0.063
Q22P	-0.522 ± 0.14
Q22H	-0.413 ± 0.19
Q22F	-0.092 ± 0.15
Q22N	-0.077 ± 0.22
Q22G	-0.08 ± 0.05
Q22S	0.018 ± 0.055
Q22R	-0.093 ± 0.051
Q22D	-0.218 ± 0.11
Q22T	-0.044 ± 0.072
Q22E	-0.043 ± 0.071
Q22W	-0.506 ± 0.088
